Assay results taken from the supplement of paper PMC10567573.

B1: DLC1 (parent)
chain: KRSWEEHVTHWMGQPFNSDDRNTA

Variants of: B1
Assay: protein stability index of a GFP-peptide fusion (GPS, HEK-293T) (PSI 1-6); higher = more stable
Conditions: c terminus: a fixed tail appended
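Further: lentivirally expressed fusions sorted by FACS into six bins by GFP to DsRed ratio, PSI derived from sequencing read proportions per bin multiplied by bin number.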

Variant	protein stability index
KRSWEKHVTHWMGQPFNSDDRNTA	3.32
KRSWEEHVTHWMGQPFNSDDRNPA	2.46
KRSWEEHVTHWMGQPFNSDDRNFA	2.13
KRSWEEHVTHWMGQPFNSDFRNTA	2.29
KRSWEEHVTHWMGQPFNSDRRNTA	2.66
KRSWEEHVTHWCGQPFNSDDRNTA	2.97
KRSWEEHVTHWDGQPFNSDDRNTA	2.7
KRSWEEHVTHWWGQPFNSDDRNTA	1.94
KRSWEEHVTHWYGQPFNSDDRNTA	3.21
KRSWEEHVTNWMGQPFNSDDRNTA	2.58
KRSWEEHVTQWMGQPFNSDDRNTA	2.56
KRSWEEHVTMWMGQPFNSDDRNTA	1.99
KRSWEEHVTVWMGQPFNSDDRNTA	2.16
KRSWEEHVTLWMGQPFNSDDRNTA	2.33
KPSWEEHVTHWMGQPFNSDDRNTA	3.37
KMSWEEHVTHWMGQPFNSDDRNTA	2.79
KYSWEEHVTHWMGQPFNSDDRNTA	3.25
KQSWEEHVTHWMGQPFNSDDRNTA	3.11
KRSWEEHVTHWMGQDFNSDDRNTA	1.63
KRSWEEHVTHWMGQWFNSDDRNTA	2.92
KRSWEEHVTHWMGQVFNSDDRNTA	2.27
KRSWEEHVTHWMGQFFNSDDRNTA	2.78
KRSWEEHVTHWMGQPFQSDDRNTA	3.12
KRSWEEHVTHWMGQPFVSDDRNTA	2.26

Variant	protein stability index
KRSWEEHVTHWMGQPFFSDDRNTA	2.77
KRSWEEHVTHWMGQPFISDDRNTA	2.38
KRSWEEHVTHWMGQPFRSDDRNTA	1.64
KRSWEEHVTHWMGQPFDSDDRNTA	3.03
KRSWEEHVTHWMGQPFNSVDRNTA	1.97
KRSWEEHVTHWMGQPFNSEDRNTA	2.76
KRSWEEHVTHWMGQPFNSRDRNTA	2.54
KRSWEEHVTHWMHQPFNSDDRNTA	2.56
KRSWEEHVTHWMQQPFNSDDRNTA	2.44
KRSWEEHVTHWMIQPFNSDDRNTA	2.25
KRSWEEHVTHWMWQPFNSDDRNTA	1.95
KRSWEEHVTHWMSQPFNSDDRNTA	2.63
KRSWEEHVTHWMNQPFNSDDRNTA	2.14
KRSWEEHVTHWMVQPFNSDDRNTA	3.04
KRSWEEAVTHWMGQPFNSDDRNTA	3.54
KRSWEEGVTHWMGQPFNSDDRNTA	4.29
KRSWEEVVTHWMGQPFNSDDRNTA	3.18
KRSWEEQVTHWMGQPFNSDDRNTA	2.75
KRSWEETVTHWMGQPFNSDDRNTA	3.21
KRSWEERVTHWMGQPFNSDDRNTA	3.08
IRSWEEHVTHWMGQPFNSDDRNTA	2.54
ARSWEEHVTHWMGQPFNSDDRNTA	3.57
PRSWEEHVTHWMGQPFNSDDRNTA	3.6
NRSWEEHVTHWMGQPFNSDDRNTA	3.63

Variant	protein stability index
VRSWEEHVTHWMGQPFNSDDRNTA	2.95
DRSWEEHVTHWMGQPFNSDDRNTA	4.26
CRSWEEHVTHWMGQPFNSDDRNTA	2.54
LRSWEEHVTHWMGQPFNSDDRNTA	3.03
SRSWEEHVTHWMGQPFNSDDRNTA	3.46
TRSWEEHVTHWMGQPFNSDDRNTA	3.35
GRSWEEHVTHWMGQPFNSDDRNTA	3.21
KRSWEEHVPHWMGQPFNSDDRNTA	3.54
KRSWEEHVWHWMGQPFNSDDRNTA	2.67
KRSWEEHVNHWMGQPFNSDDRNTA	3.75
KRSWEEHVDHWMGQPFNSDDRNTA	4.32
KRSWEEHVAHWMGQPFNSDDRNTA	2.97
KRSWEEHVHHWMGQPFNSDDRNTA	3.46
KRSWEEHVKHWMGQPFNSDDRNTA	3.59
KRSWEEHVTHWMGQPWNSDDRNTA	2.35
KRSWEEHVTHWMGQPENSDDRNTA	3.08
KRSWEEHVTHWMGQPKNSDDRNTA	2.97
KRSWEEHVTHWMGQPFNVDDRNTA	2.31
KRSWEEHVTHWMGQPFNTDDRNTA	3.21
KRSWEEHVTHWMGQPFNYDDRNTA	2.26
KRSWEEHVTHWMGQPFNCDDRNTA	2.34
KRSWEEHVTHWMGQPFNHDDRNTA	2.66
KRSWEEHVTHWMGQPFNGDDRNTA	2.76
KRWWEEHVTHWMGQPFNSDDRNTA	3

Variant	protein stability index
KRPWEEHVTHWMGQPFNSDDRNTA	3.6
KRKWEEHVTHWMGQPFNSDDRNTA	3.47
KRNWEEHVTHWMGQPFNSDDRNTA	3.81
KRSVEEHVTHWMGQPFNSDDRNTA	4.36
KRSAEEHVTHWMGQPFNSDDRNTA	4.41
KRSKEEHVTHWMGQPFNSDDRNTA	4.48
KRSGEEHVTHWMGQPFNSDDRNTA	4.38
KRSWEEHVTHTMGQPFNSDDRNTA	2.49
KRSWEEHVTHEMGQPFNSDDRNTA	1.57
KRSWEEHVTHMMGQPFNSDDRNTA	2.54
KRSWEEHVTHVMGQPFNSDDRNTA	3.19
KRSWEEHVTHFMGQPFNSDDRNTA	2.7
KRSWEEHVTHWMGQPFNSDDRITA	2.12
KRSWEEHVTHWMGQPFNSDDRSTA	2.74
KRSWEEHVTHWMGQPFNSDDRLTA	2.06
KRSWEEHVTHWMGQPFNSDDRDTA	2.59
KRSWEEHVTHWMGQPFNSDDRTTA	2.29
KRSWEEHVTHWMGQPFNSDDRNTC	2.32
KRSWEEHVTHWMGQPFNSDDRNTH	2.9
KRSWEEHVTHWMGQPFNSDDRNTV	3.28
KRSWEEHVTHWMGQPFNSDDRNTY	1.72
KRSWEEHVTHWMGQPFNSDDRNTD	2.82
